Where two headings read alike, the source gives them in different places.
Molecular target: T1, Apo REV-ERBβ LBD (Homo sapiens, UniProt Q14995)
T1 construct: The human REV-ERBβ LBD (residues 381 to 579) was previously cloned; 6xHis with 3C protease cleavage site (N, cleaved yes); made in house; host or cells: E. coli BL21(DE3)
T1 sequence (Q14995 381-579): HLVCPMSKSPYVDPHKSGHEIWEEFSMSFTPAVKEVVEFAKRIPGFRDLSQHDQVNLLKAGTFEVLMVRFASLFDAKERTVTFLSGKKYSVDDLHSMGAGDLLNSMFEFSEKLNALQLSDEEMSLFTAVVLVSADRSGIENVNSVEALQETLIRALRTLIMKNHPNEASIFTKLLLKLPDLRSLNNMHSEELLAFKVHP
Test: ITC, NCoR RID constructs with apo REV-ERBβ LBD
Format: binding
Details: WT RID; for Kd: LBD 150 μM (2 × 20 injections) into 15 μM RID, pH 7.4, 25°C, two nonsymmetric sites, microscopic K model
Method: Human REV-ERBβ LBD was expressed in BL21(DE3) Escherichia coli cells with an N-terminal hexahistidine (6xHis) tag separated by a 3C protease cleavage site. Expression was performed using auto-induction media: Cells were grown at 37°C for 5 hours, 30°C for 1 hour, and 18°C for 16 hours before harvesting by centrifugation. Pellets were resuspended in potassium phosphate lysis buffer [40 mM potassium phosphate (pH 7.4), 500 mM KCl, 15 mM imidazole, and 1 mM dithiothreitol (DTT)] supplemented with leupeptin, pepstatin A, lysozyme, and deoxyribonuclease (DNase) I and sonicated on ice. […] A 5-ml aliquot of 6xHis-tagged protein was purified by size exclusion chromatography using a Superdex 75 column equilibrated in time-resolved fluorescence energy transfer (TR-FRET) assay buffer [20 mM potassium phosphate (pH 7.4), 50 mM KCl, and 0.5 mM EDTA]; purified aliquots were stored at −80°C for TR-FRET assays. To cleave the 6xHis tag from the remaining protein, it was incubated overnight with 3C protease (generated in-house) via dialysis; then, protein was reloaded onto the HisTrap columns, and the flow-through was collected. Last, aggregates were removed by size exclusion chromatography using a Superdex 75 column and Hepes gel filtration buffer [20 mM Hepes (pH 7.4), 50 mM KCl, and 0.5 mM EDTA]. Greater than 95% purity was confirmed by SDS-PAGE. Protein was aliquoted and stored at −80°C.
ITC experiments were performed using a MicroCal iTC200. All experiments were solvent-matched and contained 0.1% DMSO (peptide vehicle) and 0.2% 0.2 M solution of NaOH (heme vehicle) final concentrations. NITPIC software ([37]) was used to calculate baselines and integrate curves and prepare experimental data for fitting in SEDPHAT, which was used to generate final binding affinity and thermodynamic parameter measurements ([38]).Final figures were exported to GUSSI for publication-quality figure preparation ([39]).
[…] REV-ERBβ LBD in the syringe was titrated into the RID in the sample cell as described above, with the exception that a total of 4 molar equivalents were titrated over 20 injections. […] For apo LBD into WT RID, data were fit to A + B ↔ AB + B ↔ BA + A ↔ BAB, with two nonsymmetric sites, microscopic K model in SEDPHAT. For apo LBD into ΔID2, data were fit to an A + B ↔ AB hetero-association model in SEDPHAT. For heme-bound LBD into WT RID, data were fit to an A + B ↔ AB hetero-association model in SEDPHAT.
NCoR RID constructs (including WT, ΔID1, ΔID2, and ΔID1ΔID2) were transformed into BL21(DE3) E. coli cells, which were grown in 2 liters of Terrific Broth media [yeast extract (24 g/liter), tryptone (12 g/liter), KH2PO4 ([…]), K2HPO4 ([…]), and glycerol (4 ml/liter)] at 37°C until OD600 reached 0.7 to 0.8. Expression was induced with 0.75 mM IPTG for 2 hours at 37°C before cells were harvested by centrifugation. Pellets were washed 1× with phosphate-buffered saline and stored at −80°C until purification. Pellets were resuspended on ice in Hepes lysis buffer [25 mM Hepes (pH 7.4), 150 mM NaCl, 2 M urea, and 15 mM imidazole] supplemented with 1 mM DTT, pepstatin A, leupeptin, lysozyme, DNase I, phenylmethylsulfonyl fluoride, and 0.1% Tween 20, and cell slurry was sonicated on ice. Lysed cells were centrifuged at 20,000g for 30 min at 4°C, and soluble lysate was filtered before IMAC purification using 2 × 5 ml HisTrap columns (GE Healthcare) affixed to an ÄKTA pure; elution buffer was 25 mM Hepes (pH 7.4), 150 mM NaCl, and 500 mM imidazole. Fractions were pooled; additional protease inhibitors were added, and protein was dialyzed against 25 mM Hepes (pH 7.0), 150 mM NaCl, and 1 mM DTT with Tobacco etch virus (TEV) protease to cleave the Trx-6xHis tag at 4°C overnight. Cleaved protein was reloaded on HisTrap columns and eluted with 50 mM bis-tris (pH 6.7), 150 mM NaCl, and 1 mM DTT. […]

B1: WT RID: mouse NCoR RID (residues 1942 to 2208 in the X50 splice variant) (protein, UniProt Q60974 1942-2208, looked up, fragment)
chain: TITAANFIDVIITRQIASDKDARERGSQSSDSSSSLSSHRYETASDAIEVISPASSPAPPQEKPQAYQPDMVKANQAENESTRQYEGPLHHYRSQQESPSPQQQPPLPPSSQSEGMGQVPRTHRLITLADHICQIITQDFARNQVPSQASTSTFQTSPSALSSTPVRTKTSSRYSPESQSQTVLHPRPGPRVSPENLVDKSRGSRPGKSPERSHIPSEPYEPISPPQGPAVHEKQDSMLLLSQRGVDPAEQRSDSRSPGSISYLPSF
modifications: X50 splice variant
For B1, the “LBD:RID stoichiometry” value was “two apo LBDs interact with one RID, most likely with positive cooperativity”, the Kd (95% CI, read-out: KD, Site 1) was 12 nM and the Kd (95% CI, read-out: KD, Site 2) was 740 nM. The “TΔS, Site 1” value (site 1, 25°C, 95% CI) was 2.5 kcal/mol, the “ΔG, Site 1” value (site 1, 25°C, 95% CI) was -10.8 kcal/mol and the “ΔH, Site 1” value (site 1, 25°C, 95% CI) was -8.3 kcal/mol. For the same molecule, the “TΔS, Site 2” value (site 2, 25°C, 95% CI) was 12 (95% CI: 11 to13) kcal/mol, the “ΔG, Site 2” value (site 2, 25°C, 95% CI) was -8.4 kcal/mol and the “ΔH, Site 2” value (site 2, 25°C, 95% CI) was 3.2 kcal/mol.
